Experimental data: publication PMC2494773 (American Journal of Physiology. Heart and Circulatory …, 2008)

Key:
[1] = biological target: the molecule itself; experiment: non-reducing SDS-PAGE and immunoblot
[2] = biological target: the molecule itself; experiment: SEC

| Protein | stoichiometry N [1] | stoichiometry N [2] |
| --- | --- | --- |
| peroxiredoxin 2 (Prdx2), rat heart (natural protein, rat (endogenous in heart), UniProt P35704 1-198, looked up) MASGNAHIGKPAPDFTGTAVVDGAFKEIKLSDYRGKYVVLFFYPLDFTFVCPTEIIAFSDHAEDFRKLGCEVLGVSVDSQFTHLAWINTPRKEGGLGPLNIPLLADVTKSLSQNYGVLKNDEGIAYRGLFIIDAKGVLRQITVNDLPVGRSVDEALRLVQAFQYTDEHGEVCPAGWKPGSDTIKPNVDDSKEYFSKHN | 2 | 10 |
| peroxiredoxin 1 (Prdx1), rat heart (natural protein, rat (endogenous in heart), UniProt Q63716 1-199, looked up) MSSGNAKIGHPAPSFKATAVMPDGQFKDISLSDYKGKYVVFFFYPLDFTFVCPTEIIAFSDRAEEFKKLNCQVIGASVDSHFCHLAWINTPKKQGGLGPMNIPLVSDPKRTIAQDYGVLKADEGISFRGLFIIDDKGILRQITINDLPVGRSVDEILRLVQAFQFTDKHGEVCPAGWKPGSDTIKPDVNKSKEYFSKQK | 2 |  |
